Results published in paper PMC4837482, “The complex binding mode of the peptide hormone H2 relaxin to its receptor RXFP1” (Nature Communications, 2016).
Changes are numbered by the printed parent chain. Numbers in names are those of the source. Entries after “also recorded” stand apart in the source; their conditions may differ. Where no end group is shown, it is not given here.

Legend:
RXFP1(1–72) = target: T1, RXFP1(1–72) (Homo sapiens, UniProt Q9HBX9); assay: NMR competition titration against the RXFP1(1–72)/Mn2+-DTPA-(A)-H2 complex; assay type: binding; details: 50 μM peptide added to 50 μM 15N-RXFP1(1–72) with 0.2 μM Mn2+-DTPA-(A)-H2; pH 6.8, 25 °C
T1 construct: GB1 (N, cleaved yes); made in house; host or cells: E. coli BL21 (DE3) trxB
T1 sequence (Q9HBX9 23-94 limits assumed): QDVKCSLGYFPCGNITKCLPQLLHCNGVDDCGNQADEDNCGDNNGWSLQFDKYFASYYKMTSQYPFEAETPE
Procedure: All RXFP1(1–72) protein samples for nuclear magnetic resonance (NMR) experiments were prepared from lyophilized protein in 50 mM imidazole, with 10 mM CaCl2 at pH 6.8. Recombinant human gene-2 H2 relaxin peptide was kindly provided by Corthera. EL1^(475–486)/EL2-GB1 samples were prepared as described above. Titrant and titrand were dialyzed in the same buffer in the same vessel. All NMR experiments were routinely collected at 25 °C on a 700-MHz Bruker Avance HDIII spectrometer equipped with triple resonance cryoprobe. […] Backbone assignments were made from 3D HNCACB, HNCOCACB, HNCO and HNCACO experiments. Spectra were processed using NMRPipe (ref. [43]) and typically Fourier-transformed after applying Lorentz-to-Gauss window functions in the direct dimension and cosine bells in the indirect dimensions. NMR data were analysed using SPARKY (Goddard, T.D. and Kneller, D.G., University of California, San Francisco). Assignments of the mutant RXFP1(1–72) proteins were determined from the assignments of wild-type RXFP1(1–72).
^15N{^1H}-NOE experiments[45] (2,048 × 256 data points) were acquired with a saturation pulse of 4 s and an additional relaxation delay of 5 s. Sample conditions were 150 μM RXFP(1–72) or mutants either without or with 450 μM H2 relaxin. Binding to Mn^2+-DTPA-(A)-H2 to RXFP1(1–72) and mutants was monitored by recording 2D ^1H-^15N HSQC (2,048 × 256 data points) for 0.2 μM Mn^2+-DTPA-(A)-H2 against 50 μM RXFP1(1–72). H2 relaxin and its truncates such as A-chain (9–24), H2/I5 chimera and Phe23Ala A-chain mutant H2 were titrated into a complex of 50 μM RXFP1(1–72) and 0.2 μM Mn^2+-DTPA-(A)-H2 with increasing concentrations ranging from 5 to 50 μM.

RXFP1 [1] = target: T2, RXFP1 (Homo sapiens, UniProt Q9HBX9); details: versus H2 relaxin; cited from earlier work
T2 construct: transiently transfected human embryonic kidney (HEK) 293T cells expressing full-length RXFP1 and mutants; expressed in transfected cells; host or cells: HEK293T
T2 sequence (Q9HBX9 1-757): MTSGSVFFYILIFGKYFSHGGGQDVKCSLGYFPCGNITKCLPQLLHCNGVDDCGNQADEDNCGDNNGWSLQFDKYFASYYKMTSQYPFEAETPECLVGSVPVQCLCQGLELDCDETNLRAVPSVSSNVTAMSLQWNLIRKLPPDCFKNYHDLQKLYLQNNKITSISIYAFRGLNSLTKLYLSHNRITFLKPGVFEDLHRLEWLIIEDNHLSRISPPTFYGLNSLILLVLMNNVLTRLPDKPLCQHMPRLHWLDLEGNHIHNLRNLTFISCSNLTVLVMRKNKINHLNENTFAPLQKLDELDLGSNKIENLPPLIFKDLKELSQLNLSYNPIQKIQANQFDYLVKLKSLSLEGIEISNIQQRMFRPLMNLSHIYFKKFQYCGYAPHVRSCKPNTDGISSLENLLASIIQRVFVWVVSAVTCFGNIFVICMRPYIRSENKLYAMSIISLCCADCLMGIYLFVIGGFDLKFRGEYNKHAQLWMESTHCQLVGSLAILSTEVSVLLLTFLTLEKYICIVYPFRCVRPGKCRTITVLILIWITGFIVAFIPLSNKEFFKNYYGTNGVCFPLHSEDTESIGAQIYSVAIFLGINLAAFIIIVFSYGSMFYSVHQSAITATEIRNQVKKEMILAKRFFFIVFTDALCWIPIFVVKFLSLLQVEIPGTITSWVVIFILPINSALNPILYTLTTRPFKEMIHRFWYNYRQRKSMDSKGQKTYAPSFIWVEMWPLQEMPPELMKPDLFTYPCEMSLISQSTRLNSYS

RXFP1 [2] = target: T2, RXFP1; details: versus H2 relaxin; cited from earlier work; remark: listed apart in the source
[3] = target: T3, Europium-labelled H2 relaxin (human, UniProt P04090 162-185; P04090 25-53, DTPA cage loaded with Eu^3+ on the N-terminus of the A-chain); assay: europium-labelled ligand saturation binding on cells (time-resolved fluorescence); HEK293T cells transiently transfected with receptor, 96-well plates; increasing Eu-H2 relaxin (maximum 15 nM) with or without 1 μM unlabelled H2 relaxin, 1 h, room temperature; 20 mM HEPES pH 7.5, 1.5 mM CaCl2, 50 mM NaCl, 0.01% NaN3, 1% BSA; one-site fit; details: one partner purified
T3 construct: A chain of human gene-2 (H2) relaxin; numbers count on: the A chain; B chain of human gene-2 (H2) relaxin; numbers count on: the B chain; also called Eu-H2 relaxin; Eu-H2

A-chain (9–24) H2: N-terminally truncated A-chain (9–24) H2 peptide (KCCHVGCTKRSLARFC; ends and bridges not checked; cysteine pairing not given here; UniProt P04090 170-185, looked up, fragment)
competition with Mn2+-DTPA-(A)-H2 for RXFP1(1–72) (peak intensities, chemical shifts) (RXFP1(1–72)): the gain in peak intensity was not as pronounced as that recorded with native H2 peptide | affinity for RXFP1 (RXFP1 [1]): decreased | potency for RXFP1 (RXFP1 [2]): decreased

F23A: H2 relaxin mutant F23A; destabilizes the secondary structure of the A-chain (QLYSALANKCCHVGCTKRSLARAC; ends and bridges not checked; cysteine pairing not given here; UniProt P04090 162-185, looked up, variant F23A)
competition with Mn2+-DTPA-(A)-H2 for RXFP1(1–72) (peak intensities, chemical shifts) (RXFP1(1–72)): did not compete | binding affinity for RXFP1 (RXFP1 [1]): significant loss | activation of RXFP1 (RXFP1 [2]): significant loss

H2-(B1–25): B-chain truncate of H2 relaxin (DSWMEEVIKLCGRELVRAQIAICGM; ends and bridges not checked; cysteine pairing not given here; UniProt P04090 25-49, looked up, fragment)
competition with Mn2+-DTPA-(A)-H2 for RXFP1(1–72) (peak intensities, chemical shifts) (RXFP1(1–72)): did not detect any significant difference in binding | affinity at RXFP1 (RXFP1 [1]): retain their native affinity and potency | potency at RXFP1 (RXFP1 [2]): retain their native affinity and potency

H2-(B5–29): B-chain truncate of H2 relaxin (EEVIKLCGRELVRAQIAICGMSTWS; ends and bridges not checked; cysteine pairing not given here; UniProt P04090 29-53, looked up, fragment)
competition with Mn2+-DTPA-(A)-H2 for RXFP1(1–72) (peak intensities, chemical shifts) (RXFP1(1–72)): did not detect any significant difference in binding | affinity at RXFP1 (RXFP1 [1]): retain their native affinity and potency | potency at RXFP1 (RXFP1 [2]): retain their native affinity and potency

H2/I5-2: A-chain H2 chimeric analogue; His12 and Val13 (H2) replaced by Thr12 and Asp13 (INSL5) (QLYSALANKCCTDGCTKRSLARFC; ends and bridges not checked; cysteine pairing not given here; UniProt P04090 162-185, looked up, variant H12T V13D)
competition with Mn2+-DTPA-(A)-H2 for RXFP1(1–72) (peak intensities, chemical shifts) (RXFP1(1–72)): no changes were observed in peak intensities or chemical shifts; also recorded: could not bind | binding affinity for RXFP1 (RXFP1 [1]): modest loss of binding | activation of RXFP1 (RXFP1 [2]): retains the ability to activate

B1: RXFP1 G41A/D42A, full length (receptor)
chain: QDVKCSLGYFPCGNITKCLPQLLHCNGVDDCGNQADEDNCAANNGWSLQFDKYFASYYKMTSQYPFEAETPECLVGSVPVQCLCQGLELDCDETNLRAVPSVSSNVTAMSLQWNLIRKLPPDCFKNYHDLQKLYLQNNKITSISIYAFRGLNSLTKLYLSHNRITFLKPGVFEDLHRLEWLIIEDNHLSRISPPTFYGLNSLILLVLMNNVLTRLPDKPLCQHMPRLHWLDLEGNHIHNLRNLTFISCSNLTVLVMRKNKINHLNENTFAPLQKLDELDLGSNKIENLPPLIFKDLKELSQLNLSYNPIQKIQANQFDYLVKLKSLSLEGIEISNIQQRMFRPLMNLSHIYFKKFQYCGYAPHVRSCKPNTDGISSLENLLASIIQRVFVWVVSAVTCFGNIFVICMRPYIRSENKLYAMSIISLCCADCLMGIYLFVIGGFDLKFRGEYNKHAQLWMESTHCQLVGSLAILSTEVSVLLLTFLTLEKYICIVYPFRCVRPGKCRTITVLILIWITGFIVAFIPLSNKEFFKNYYGTNGVCFPLHSEDTESIGAQIYSVAIFLGINLAAFIIIVFSYGSMFYSVHQSAITATEIRNQVKKEMILAKRFFFIVFTDALCWIPIFVVKFLSLLQVEIPGTITSWVVIFILPINSALNPILYTLTTRPFKEMIHRFWYNYRQRKSMDSKGQKTYAPSFIWVEMWPLQEMPPELMKPDLFTYPCEMSLISQSTRLNSYS
Kd [3]: > 20 nM

B2: RXFP1 G45A/W46A, full length (receptor)
chain: B1 chain with A41G, A42D, G45A, W46A
Kd [3]: > 20 nM
